Reference: US20120220015

Tests used:
α2-antiplasmin = biological target: T1, α2-antiplasmin (UniProt P08697)
T1 sequence: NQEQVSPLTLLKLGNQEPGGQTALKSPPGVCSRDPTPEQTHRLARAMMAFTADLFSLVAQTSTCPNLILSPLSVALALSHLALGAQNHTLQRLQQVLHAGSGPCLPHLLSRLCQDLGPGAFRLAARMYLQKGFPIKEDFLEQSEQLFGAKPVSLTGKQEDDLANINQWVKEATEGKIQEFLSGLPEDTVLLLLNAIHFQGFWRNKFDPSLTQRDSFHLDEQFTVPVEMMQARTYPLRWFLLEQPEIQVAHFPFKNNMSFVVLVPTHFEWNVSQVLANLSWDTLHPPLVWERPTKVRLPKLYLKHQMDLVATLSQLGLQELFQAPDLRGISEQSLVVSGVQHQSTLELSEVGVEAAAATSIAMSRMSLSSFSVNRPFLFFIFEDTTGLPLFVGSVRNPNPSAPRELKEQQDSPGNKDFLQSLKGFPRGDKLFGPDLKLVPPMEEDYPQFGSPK

[1] = biological target: fibrin (clot formed from purified fibrinogen with α-thrombin) (UniProt P02671)
Sequence of fibrin (clot formed from purified fibrinogen with α-thrombin) (P02671 36-629, chain 1 of 3): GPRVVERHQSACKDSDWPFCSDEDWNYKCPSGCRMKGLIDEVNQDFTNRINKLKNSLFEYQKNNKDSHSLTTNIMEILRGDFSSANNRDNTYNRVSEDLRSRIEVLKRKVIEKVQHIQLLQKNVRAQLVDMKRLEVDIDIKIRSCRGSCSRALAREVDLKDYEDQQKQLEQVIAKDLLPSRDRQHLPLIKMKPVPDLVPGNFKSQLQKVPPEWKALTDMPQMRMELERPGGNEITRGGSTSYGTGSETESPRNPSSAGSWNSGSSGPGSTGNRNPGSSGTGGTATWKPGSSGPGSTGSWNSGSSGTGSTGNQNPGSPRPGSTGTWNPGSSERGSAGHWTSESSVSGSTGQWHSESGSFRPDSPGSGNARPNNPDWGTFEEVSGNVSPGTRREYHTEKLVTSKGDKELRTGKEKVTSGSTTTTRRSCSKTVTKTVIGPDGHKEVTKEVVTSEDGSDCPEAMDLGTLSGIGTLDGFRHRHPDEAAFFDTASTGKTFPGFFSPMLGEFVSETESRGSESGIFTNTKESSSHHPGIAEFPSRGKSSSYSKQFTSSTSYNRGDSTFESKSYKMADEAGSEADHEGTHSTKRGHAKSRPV
Sequence of fibrin (clot formed from purified fibrinogen with α-thrombin) (chain, as listed by the source, chain 2 of 3): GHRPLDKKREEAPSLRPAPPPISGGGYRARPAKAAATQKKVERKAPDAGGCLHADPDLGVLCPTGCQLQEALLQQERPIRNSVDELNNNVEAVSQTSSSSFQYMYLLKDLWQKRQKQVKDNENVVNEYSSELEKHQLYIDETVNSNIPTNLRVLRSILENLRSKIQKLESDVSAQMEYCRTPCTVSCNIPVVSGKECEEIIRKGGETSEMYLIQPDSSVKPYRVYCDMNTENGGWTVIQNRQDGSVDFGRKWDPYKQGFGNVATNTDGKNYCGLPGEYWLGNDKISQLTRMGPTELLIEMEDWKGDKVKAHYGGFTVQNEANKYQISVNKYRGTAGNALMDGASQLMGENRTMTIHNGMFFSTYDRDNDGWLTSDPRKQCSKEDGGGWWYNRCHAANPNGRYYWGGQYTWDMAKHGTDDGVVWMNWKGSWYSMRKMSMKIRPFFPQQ
Sequence of fibrin (clot formed from purified fibrinogen with α-thrombin) (chain, as listed by the source, chain 3 of 3): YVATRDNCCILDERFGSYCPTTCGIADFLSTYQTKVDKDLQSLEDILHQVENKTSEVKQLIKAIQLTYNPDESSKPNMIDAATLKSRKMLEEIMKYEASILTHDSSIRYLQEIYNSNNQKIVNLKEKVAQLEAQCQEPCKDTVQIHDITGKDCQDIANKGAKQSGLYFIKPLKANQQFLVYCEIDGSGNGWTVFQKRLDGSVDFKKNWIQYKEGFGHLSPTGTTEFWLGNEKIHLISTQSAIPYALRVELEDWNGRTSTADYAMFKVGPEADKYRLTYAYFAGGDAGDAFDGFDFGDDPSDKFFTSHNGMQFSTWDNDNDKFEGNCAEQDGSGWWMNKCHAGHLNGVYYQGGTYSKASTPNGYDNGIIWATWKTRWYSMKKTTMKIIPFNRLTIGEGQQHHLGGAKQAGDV

In the case of “human reference plasmin (commercial, human-derived plasmin)”, the “plasmin activity (S-2403 hydrolysis at 405 nm) after 30 minutes pre-incubation with α2-AP, plasmin:α2-AP molar ratio of 1:1” value (α2-antiplasmin) is reported as “no plasmin activity was detected for human, BAP12-B2-150, or BAP01-B1-230 plasmin, indicating that the inhibition was complete” and the “fibrin clot lysis (decrease of turbidity at 340 nm), plasmin at 500, 250, 125 and 62 nM” value [1] is reported as “steeper slopes of the curves with increasing plasmin concentrations”.
